{
  "source": "paper PMC5784833",
  "about": "(Journal of the American Chemical Society, 2017)",
  "test_system": "CC(=O)Oc1ccc([N+](=O)[O-])cc1",
  "assay": "purified protein",
  "data": [
    {"substance": "carbonic anhydrase II (CA-II) (Homo sapiens)", "values": [
      {"measurement": "Km", "result": "2520 ± 260", "unit": "µM"}
    ]}
  ]
}
